The experiment concerns the target T1, HLA-A*02:01 (peptide-receptive MHC class I monomer from UV-ligand exchange) (human).
T1 construct: Monomers were captured on streptavidin-coated plates
Description: UV-exchange ELISA (anti-b2m); exchange yield grade: + >=10%, ++ >=20%, +++ >=50%, ++++ >=75%. Summed up: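 Binding capacity is expressed as the yield of UV-mediated ligand exchange, reflecting how well each peptide stabilizes peptide-receptive MHC. Stabilized complexes are read out by anti-β2m HRP ELISA (450 nm) after streptavidin capture, with refolded MLA-001 monomer standards for quantitation.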

TVDVATPSV [peptide TVDVATPSV (SEQ ID NO 91)]: the peptide exchange yield lay in the range of 50 to 75%. In the case of WIDDTSAFV [peptide WIDDTSAFV (SEQ ID NO 92)] it was 50 to 75%; in that of ALMLQGVDLL [peptide ALMLQGVDLL (SEQ ID NO 8)], 50 to 75%; in that of YLLDYPNNLL [peptide YLLDYPNNLL (SEQ ID NO 72)], 50 to 75%. For KILVSLIEV [peptide KILVSLIEV (SEQ ID NO 102)] the value was 50 to 75%. For AMNGKSFSV [peptide AMNGKSFSV (SEQ ID NO 98)] the value was 20 to 50%. With SLAADQLLKL [peptide SLAADQLLKL (SEQ ID NO 79)], the peptide exchange yield lay within 20 to 50%.

Turning to LLFDAPDLRL [peptide LLFDAPDLRL (SEQ ID NO 87)], the peptide exchange yield lay within 50 to 75%.

For RLWTEIPTAI [peptide RLWTEIPTAI (SEQ ID NO 71)], the peptide exchange yield lay in the range of 50 to 75%. In the case of KLYSRLVYV [peptide KLYSRLVYV (SEQ ID NO 96)] it was 20 to 50%; in that of LTIEDGIFEV [peptide LTIEDGIFEV (SEQ ID NO 83)], 50 to 75%. Turning to SMVEDITGLRL [peptide SMVEDITGLRL (SEQ ID NO 84)], the peptide exchange yield was 50 to 75%.

On to AILDAHIEV [peptide AILDAHIEV (SEQ ID NO 95)], for which the peptide exchange yield was at least 75%. Turning to YLAPENGYL [peptide YLAPENGYL (SEQ ID NO 62)], the peptide exchange yield is 20 to 50%. In the case of FLAELPGSLSL [peptide FLAELPGSLSL (SEQ ID NO 6)] it was 50 to 75%; in that of SLIEYEFRV [peptide SLIEYEFRV (SEQ ID NO 89)], 50 to 75%; in that of KLLKLFQGV [peptide KLLKLFQGV (SEQ ID NO 61)], 50 to 75%. With GLDDGPDFL [peptide GLDDGPDFL (SEQ ID NO 66)], the peptide exchange yield is 20 to 50%.

With MISELEVRL [peptide MISELEVRL (SEQ ID NO 70)], the peptide exchange yield lay within 50 to 75%.

As for LLTDNVVKL [peptide LLTDNVVKL (SEQ ID NO 59)], the peptide exchange yield lay in the range of 50 to 75%. For KSMDIVLTV [peptide KSMDIVLTV (SEQ ID NO 94)] the value was 50 to 75%. On to QLYEEPDTKL [peptide QLYEEPDTKL (SEQ ID NO 82)], for which the peptide exchange yield lay in the range of 20 to 50%. Turning to KLFSILSTV [peptide KLFSILSTV (SEQ ID NO 63)], the peptide exchange yield fell in the range of 20 to 50%. In the case of KVFPGKISV [peptide KVFPGKISV (SEQ ID NO 86)] it was 20 to 50%.

With VLDEDEPRFL [peptide VLDEDEPRFL (SEQ ID NO 60)], the peptide exchange yield was 20 to 50%. In the case of KTLGKLWRL [peptide KTLGKLWRL (SEQ ID NO 64)] it was 20 to 50%; in that of SLLKRDFGA [peptide SLLKRDFGA (SEQ ID NO 77)], 20 to 50%; in that of ALDPELLLL [peptide ALDPELLLL (SEQ ID NO 78)], 20 to 50%.

Turning to GLLKPGLNVVL [peptide GLLKPGLNVVL (SEQ ID NO 90)], the peptide exchange yield is 50 to 75%. As to GLSEGHTFQV [peptide GLSEGHTFQV (SEQ ID NO 101)], the peptide exchange yield was 50 to 75%. SLQELRLLL [peptide SLQELRLLL (SEQ ID NO 93)]: the peptide exchange yield is at least 75%. In the case of SLDDFLATA [peptide SLDDFLATA (SEQ ID NO 100)] it was 50 to 75%; in that of ALLSQQTHL [peptide ALLSQQTHL (SEQ ID NO 81)], 50 to 75%.

In the case of YLMGFLHAV [peptide YLMGFLHAV (SEQ ID NO 74)], the peptide exchange yield lay in the range of 50 to 75%. As to AMADKMDMSL [peptide AMADKMDMSL (SEQ ID NO 58)], the peptide exchange yield lay in the range of 20 to 50%.

With ALWWGVVTV [peptide ALWWGVVTV (SEQ ID NO 97)], the peptide exchange yield lay in the range of 20 to 50%. For QVDEVVDIMRV [peptide QVDEVVDIMRV (SEQ ID NO 80)] the value was 20 to 50%; for YLFDIAVSM [peptide YLFDIAVSM (SEQ ID NO 73)], 50 to 75%; for SLNDLEKDVMLL [peptide SLNDLEKDVMLL (SEQ ID NO 67)], 50 to 75%. In the case of YLIGEKQHYL [peptide YLIGEKQHYL (SEQ ID NO 76)] it was 50 to 75%; in that of SILQFVHMV [peptide SILQFVHMV (SEQ ID NO 68)], 50 to 75%. In the case of EMIENIQSV [peptide EMIENIQSV (SEQ ID NO 75)] it was 20 to 50%; in that of FLFGYPKRL [peptide FLFGYPKRL (SEQ ID NO 103)], 20 to 50%. As to ILHDINSDGVL [peptide ILHDINSDGVL (SEQ ID NO 85)], the peptide exchange yield fell in the range of 20 to 50%. Regarding ILDDHLSRV [peptide ILDDHLSRV (SEQ ID NO 9)], the peptide exchange yield fell in the range of 20 to 50%. Consider YLTRHLAVL [peptide YLTRHLAVL (SEQ ID NO 7)], for which the peptide exchange yield lay within 20 to 50%.

On to GMLNEAEGKAIKL [peptide GMLNEAEGKAIKL (SEQ ID NO 69)], for which the peptide exchange yield fell in the range of 20 to 50%. For KLLEVDLDTV [peptide KLLEVDLDTV (SEQ ID NO 99)] the value was 50 to 75%.

For the molecule KLDIKVETV [peptide KLDIKVETV (SEQ ID NO 88)], the peptide exchange yield was at least 75%.

These data come from patent US20160347808A1 (IMMATICS BIOTECHNOLOGIES, published 2016).
